Test results from publication PMC8028314, “Sae2 and Rif2 regulate MRX endonuclease activity at DNA double-strand breaks in opposite manners” (Cell Reports, 2021).

Target: T1, Mre11-Rad50 complex (S. cerevisiae, UniProt P32829 1-692; P12753 1-1312)
T1 construct: Mre11, S. cerevisiae; Rad50, S. cerevisiae; untagged; they were not measured here; also called wild-type MR; source: Sf9 cells, purified (NiNTA, HiTrap SP HP, HiTrap Q HP); copies: 2 + 2
Assay: pull-down; MBP-Rif2-his from Sf9 lysate bound to amylose resin, washed with 1 M then 0.1 M NaCl buffer (50 mM Tris-HCl pH 7.5, 0.2% NP40, 2 mM EDTA); recombinant MR variants (1 ug) added, 1 h at 4°C; washed with 0.1 M NaCl buffer; eluted with 20 mM maltose and cleaved with PreScission protease; Ponceau (Rif2) and western blots (anti-Rad50, anti-His)
Settings: both partners purified

T1 sequence (P32829 whole entry, chain 1 of 2): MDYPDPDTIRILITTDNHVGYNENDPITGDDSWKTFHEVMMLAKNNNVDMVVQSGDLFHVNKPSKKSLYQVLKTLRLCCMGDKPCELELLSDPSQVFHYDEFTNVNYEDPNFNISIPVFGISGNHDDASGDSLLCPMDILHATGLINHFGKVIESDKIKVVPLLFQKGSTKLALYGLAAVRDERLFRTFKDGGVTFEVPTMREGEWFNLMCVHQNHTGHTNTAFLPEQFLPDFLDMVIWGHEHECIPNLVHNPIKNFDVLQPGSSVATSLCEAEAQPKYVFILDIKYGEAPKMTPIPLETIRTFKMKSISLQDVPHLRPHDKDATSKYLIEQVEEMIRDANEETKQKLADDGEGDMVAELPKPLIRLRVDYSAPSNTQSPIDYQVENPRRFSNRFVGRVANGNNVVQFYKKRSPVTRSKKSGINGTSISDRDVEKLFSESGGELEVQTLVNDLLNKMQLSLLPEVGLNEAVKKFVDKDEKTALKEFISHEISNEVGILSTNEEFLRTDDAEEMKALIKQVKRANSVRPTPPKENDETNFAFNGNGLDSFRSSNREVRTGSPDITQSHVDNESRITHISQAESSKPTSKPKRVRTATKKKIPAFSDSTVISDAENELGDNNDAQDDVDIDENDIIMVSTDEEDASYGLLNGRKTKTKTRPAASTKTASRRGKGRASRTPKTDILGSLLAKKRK
T1 sequence (P12753 whole entry, chain 2 of 2): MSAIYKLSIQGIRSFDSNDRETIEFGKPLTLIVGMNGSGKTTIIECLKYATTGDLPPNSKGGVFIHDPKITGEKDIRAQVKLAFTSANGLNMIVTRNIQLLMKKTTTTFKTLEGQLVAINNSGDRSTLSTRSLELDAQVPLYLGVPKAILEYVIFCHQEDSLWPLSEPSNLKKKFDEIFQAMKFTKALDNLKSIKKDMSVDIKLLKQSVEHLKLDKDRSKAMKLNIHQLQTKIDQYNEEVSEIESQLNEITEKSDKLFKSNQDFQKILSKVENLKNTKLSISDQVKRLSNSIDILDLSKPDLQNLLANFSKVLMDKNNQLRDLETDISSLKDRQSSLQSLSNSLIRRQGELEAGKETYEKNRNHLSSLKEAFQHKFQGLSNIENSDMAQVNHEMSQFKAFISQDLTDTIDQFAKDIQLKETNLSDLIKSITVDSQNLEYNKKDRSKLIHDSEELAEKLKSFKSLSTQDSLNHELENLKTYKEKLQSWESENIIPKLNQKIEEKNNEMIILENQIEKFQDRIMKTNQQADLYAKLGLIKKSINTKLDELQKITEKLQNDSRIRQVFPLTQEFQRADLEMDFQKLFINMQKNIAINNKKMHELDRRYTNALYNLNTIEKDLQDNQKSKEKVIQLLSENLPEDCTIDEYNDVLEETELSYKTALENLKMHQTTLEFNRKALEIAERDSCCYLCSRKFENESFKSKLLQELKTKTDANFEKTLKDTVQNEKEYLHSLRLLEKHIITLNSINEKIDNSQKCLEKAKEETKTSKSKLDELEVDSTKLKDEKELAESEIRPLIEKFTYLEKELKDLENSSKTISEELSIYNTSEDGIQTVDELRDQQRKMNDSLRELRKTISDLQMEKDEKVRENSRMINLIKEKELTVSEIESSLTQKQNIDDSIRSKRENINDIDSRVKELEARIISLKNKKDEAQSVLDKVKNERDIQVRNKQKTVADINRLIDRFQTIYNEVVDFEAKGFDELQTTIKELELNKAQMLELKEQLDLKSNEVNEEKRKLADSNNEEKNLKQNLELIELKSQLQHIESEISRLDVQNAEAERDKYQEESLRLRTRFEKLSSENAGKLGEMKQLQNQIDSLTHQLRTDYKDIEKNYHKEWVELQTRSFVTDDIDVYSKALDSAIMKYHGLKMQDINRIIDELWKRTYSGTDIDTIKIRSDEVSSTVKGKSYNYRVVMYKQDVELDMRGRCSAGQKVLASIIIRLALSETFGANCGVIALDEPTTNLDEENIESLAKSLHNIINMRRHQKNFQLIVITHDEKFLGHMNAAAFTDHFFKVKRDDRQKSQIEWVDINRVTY

B1: MBP-Rif2-his (natural protein, S. cerevisiae, UniProt Q06208 1-395, looked up)
chain: MEHVDSDFAPIRRSKKVVDSDKIVKAISDDLEQKNFTVLRKLNLVPIKKSVSSPKVCKPSPVKERVDHVFYQKFKSMALQELGTNYLSISYVPSLSKFLSKNLRSMKNCIVFFDKVEHIHQYAGIDRAVSETLSLVDINVVIIEMNDYLMKEGIQSSKSKECIESMGQASYSGQLDFEASEKPSNHTSDLMMMVMRKINNDESIDHIVYFKFEQLDKLSTSTIIEPSKLTEFINVLSVLEKSNNIAFKVLIYSNNVSISSLLSTSLKKKLNTKYTVFEMPILTCAQEQEYLKKMIKFTFDSGSKLLQSYNSLVTCQLNNKESNLAIFFEFLKVFPHPFTYLFNAYTEIIVQSRTFDELLDKIRNRLTIKNYPHSAYNFKKNQRLPLKLTRKVHDR
notes: Rif2, S. cerevisiae; recombinant full-length Rif2; The MBP tag was cleaved with PreScission protease only after elution from the resin; In the ATPase and nuclease assays purified Rif2-his with MBP cleaved off was used; The construct was a gift from A. Bianchi; also called recombinant Rif2; not shown: MBP, N-terminal, kept; 10xHis, C-terminal, kept
B1: binds.
